Data on one substance can be found in patent US20250230234A1.

The target of test [1] is human GPRC5D-human GPRC5A chimera (226-239) (human) (UniProt Q9NZD1). Kind of test: flow cytometry on FreeStyle 293-F cells expressing the chimera (aa226-aa239); negative control.
In test [2] the target is human GPRC5D (full length, on cells) (human) (UniProt Q9NZD1). Put plainly: flow cytometry on FreeStyle 293-F cells expressing hGPRC5D; negative control. On the technique in general: In flow cytometry, cells or beads pass a laser one at a time.
Test [3] deals with human GPRC5D-human GPRC5A chimera (85-93) (human) (UniProt Q9NZD1). Put plainly: flow cytometry on FreeStyle 293-F cells expressing the chimera (aa85-aa93); negative control.
Test [4] concerns the target human GPRC5D-human GPRC5A chimera (145-167) (human) (UniProt Q9NZD1). Put plainly: flow cytometry on FreeStyle 293-F cells expressing the chimera (aa145-aa167); negative control.
Test [5] has as its target human GPRC5D-human GPRC5A chimera (Nterm) (human) (UniProt Q9NZD1). Put plainly: flow cytometry on FreeStyle 293-F cells expressing the chimera (Nter); negative control.

Sequence of human GPRC5D-human GPRC5A chimera (226-239) (human) (Q9NZD1 other isoform, or with tags, fused parts or gaps mutant): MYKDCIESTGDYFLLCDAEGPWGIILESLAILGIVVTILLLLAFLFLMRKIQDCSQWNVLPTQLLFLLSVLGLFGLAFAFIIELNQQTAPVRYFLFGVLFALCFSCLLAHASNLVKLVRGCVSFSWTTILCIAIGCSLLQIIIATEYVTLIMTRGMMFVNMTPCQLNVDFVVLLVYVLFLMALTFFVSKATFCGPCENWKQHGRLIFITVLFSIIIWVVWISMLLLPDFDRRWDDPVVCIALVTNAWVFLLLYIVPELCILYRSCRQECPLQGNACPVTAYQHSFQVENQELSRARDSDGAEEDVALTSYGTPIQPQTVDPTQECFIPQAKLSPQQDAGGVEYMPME
Sequence of human GPRC5D-human GPRC5A chimera (Nterm) (human) (Q9NZD1 other isoform, or with tags, fused parts or gaps mutant): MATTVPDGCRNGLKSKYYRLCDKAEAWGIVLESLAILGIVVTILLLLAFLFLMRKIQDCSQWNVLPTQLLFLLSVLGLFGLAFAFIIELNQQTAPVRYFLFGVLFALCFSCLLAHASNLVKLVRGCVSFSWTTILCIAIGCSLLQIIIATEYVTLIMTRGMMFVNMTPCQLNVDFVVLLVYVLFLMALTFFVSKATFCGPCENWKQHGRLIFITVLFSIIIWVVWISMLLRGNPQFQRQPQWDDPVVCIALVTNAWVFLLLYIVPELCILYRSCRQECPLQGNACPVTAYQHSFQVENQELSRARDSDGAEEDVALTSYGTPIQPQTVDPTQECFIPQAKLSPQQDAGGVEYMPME
Sequence of human GPRC5D (full length, on cells) (human) (Q9NZD1 whole entry, the tested form may be a part): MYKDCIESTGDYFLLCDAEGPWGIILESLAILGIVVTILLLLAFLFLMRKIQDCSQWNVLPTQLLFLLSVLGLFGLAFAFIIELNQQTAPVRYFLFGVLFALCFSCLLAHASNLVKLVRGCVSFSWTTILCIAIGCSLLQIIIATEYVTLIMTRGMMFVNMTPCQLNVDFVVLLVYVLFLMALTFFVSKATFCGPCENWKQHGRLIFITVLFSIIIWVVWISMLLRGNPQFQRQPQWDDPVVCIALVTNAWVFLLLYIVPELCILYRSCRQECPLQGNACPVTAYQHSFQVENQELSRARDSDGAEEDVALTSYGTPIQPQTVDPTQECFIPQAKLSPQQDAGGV
Sequence of human GPRC5D-human GPRC5A chimera (85-93) (human) (Q9NZD1 other isoform, or with tags, fused parts or gaps mutant): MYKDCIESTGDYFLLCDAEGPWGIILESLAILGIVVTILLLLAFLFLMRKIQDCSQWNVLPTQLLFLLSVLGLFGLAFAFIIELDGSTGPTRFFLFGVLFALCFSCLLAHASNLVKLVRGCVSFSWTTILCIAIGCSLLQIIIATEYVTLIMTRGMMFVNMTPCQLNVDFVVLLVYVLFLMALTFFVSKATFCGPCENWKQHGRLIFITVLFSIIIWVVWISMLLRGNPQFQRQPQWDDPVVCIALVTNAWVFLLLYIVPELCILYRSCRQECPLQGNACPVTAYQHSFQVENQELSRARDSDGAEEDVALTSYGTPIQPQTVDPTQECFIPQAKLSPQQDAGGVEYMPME
Sequence of human GPRC5D-human GPRC5A chimera (145-167) (human) (Q9NZD1 other isoform, or with tags, fused parts or gaps mutant): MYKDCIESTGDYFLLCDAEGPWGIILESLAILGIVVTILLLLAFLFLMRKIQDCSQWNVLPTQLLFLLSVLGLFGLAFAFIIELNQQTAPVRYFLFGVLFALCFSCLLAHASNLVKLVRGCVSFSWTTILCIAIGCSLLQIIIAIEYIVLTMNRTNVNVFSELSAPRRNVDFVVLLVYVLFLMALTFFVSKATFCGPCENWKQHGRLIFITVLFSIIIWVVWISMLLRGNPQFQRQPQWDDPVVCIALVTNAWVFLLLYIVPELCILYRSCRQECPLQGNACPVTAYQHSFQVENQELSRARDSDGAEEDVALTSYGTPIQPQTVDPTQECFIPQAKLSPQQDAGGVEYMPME

Regarding “Isotype control IgG1 in wildtype format (antibody to an irrelevant small molecule target)”, the MFI in test [1] came out at 29800; in test [2] it was 27400; in test [3], 29700; in test [4] it was 32500; in test [5] it was 24700.
